US7977313B2, “Methods and compositions for promoting localization of pharmaceutically active agents to bone” (Affinergy, Inc., priority 2007, dated 2011)
Where two headings read alike, the source gives them in different places. Where a SMILES comes first, the peptide text is derived from it. The star is where a group is joined. Biotin = O=C1N[C@H]2[C@H](CS[C@H]2CCCCC(=O)*)N1

Key:
BMP4 = biological target: T1, BMP4 (Homo sapiens, UniProt P12644); test: ELISA-format binding to BMP family members; conditions: ELISA-format assay
T1 sequence (P12644 293-408): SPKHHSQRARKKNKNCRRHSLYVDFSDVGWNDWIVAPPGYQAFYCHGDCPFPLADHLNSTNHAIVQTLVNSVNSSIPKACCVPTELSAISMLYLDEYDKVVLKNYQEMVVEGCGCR
Description: (§1) Exemplary peptides were tested for their ability to bind with specificity to members of the BMP family in an ELISA-format assay. […] For example, BMP2-mediates transdifferentiation of C2C12 myoblasts into osteoblasts; and when treated with BMP-2, the alkaline phosphatase activity in C2C12 myoblasts was induced.

BMP14 = biological target: T2, BMP14 (Homo sapiens, UniProt P43026); test: ELISA-format binding to BMP family members; conditions: ELISA-format assay
T2 sequence (P43026 382-501): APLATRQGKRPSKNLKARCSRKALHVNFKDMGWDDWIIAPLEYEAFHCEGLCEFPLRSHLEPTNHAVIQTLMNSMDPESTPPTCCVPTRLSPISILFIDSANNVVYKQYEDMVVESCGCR
Description: as §1

BMP7 = biological target: T3, BMP7 (Homo sapiens, UniProt P18075); test: ELISA-format binding to BMP family members; conditions: ELISA-format assay
T3 sequence (P18075 293-431): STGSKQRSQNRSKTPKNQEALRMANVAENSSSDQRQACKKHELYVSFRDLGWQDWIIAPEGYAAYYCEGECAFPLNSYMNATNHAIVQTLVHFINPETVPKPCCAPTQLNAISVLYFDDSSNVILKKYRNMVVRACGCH
Description: as §1

BMP2 = biological target: T4, BMP2 (Homo sapiens, UniProt P12643); test: ELISA-format binding to BMP family members; conditions: ELISA-format assay
T4 sequence (P12643 283-396): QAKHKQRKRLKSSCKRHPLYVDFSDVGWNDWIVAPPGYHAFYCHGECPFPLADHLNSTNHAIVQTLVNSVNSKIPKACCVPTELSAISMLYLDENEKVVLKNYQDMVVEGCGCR
Description: as §1

[1] = phage display; cited from earlier work
human growth hormone = human growth hormone (Homo sapiens, UniProt P01241); conditions: cited from earlier work
BMP5 = biological target: T5, BMP5 (Homo sapiens, UniProt P22003); test: ELISA-format binding to BMP family members; conditions: ELISA-format assay
T5 sequence (P22003 317-454): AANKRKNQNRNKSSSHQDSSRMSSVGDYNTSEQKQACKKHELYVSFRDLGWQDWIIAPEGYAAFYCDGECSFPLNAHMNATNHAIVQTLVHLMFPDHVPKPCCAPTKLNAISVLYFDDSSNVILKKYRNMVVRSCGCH
Description: as §1

[2] = biological target: demineralized bone matrix (DBM); test: Biotinylated peptide binding to demineralized bone matrix (ELISA-type, streptavidin-alkaline phosphatase/pNPP); design: species or system human
Description: Relative binding strengths of the peptides to bone, also used as a measure of binding specificity, were determined by testing serial dilutions of the peptide for binding to bone, as represented by DBM. Plotting the absorbance observed across the concentration range for each peptide sequence yielded a binding curve of the peptides to its target substrate from which can be determined an EC50. The goal of the screenings and selections was to identify one or more peptides that bind to the selected substrate with binding specificity, with an EC50 of less than or equal to about 10 μM, and for some embodiments, in the nanomolar range (<1 μM).
As a specific example, DBM was placed in a microtiter plate at a concentration of 3 mg equivalents per well, and then the wells were blocked with buffer containing 1% BSA for 1 hour at room temperature. The buffer containing 1% BSA was then aspirated from each well, and added to the wells were the serial dilutions of biotinylated peptide. The microtiter plates were incubated for 1 hour at room temperature on a plate shaker. The DBM was then allowed to settle, and the buffer was then aspirated from the wells. The DBM was washed three times with buffer-T, and then streptavidin-alkaline phosphatase was added. The microtiter plates were incubated for 1 hour at room temperature on a plate shaker. The DBM was then allowed to settle, and the buffer was then aspirated from the wells. The DBM was washed three times with buffer-T, pNPP (p-nitrophenyl phosphate) was used to develop the assay, and the absorbance was recorded at 405 nm. An estimate of the relative affinity (binding specificity, EC50) of a peptide for bone can be made by determining the concentration of peptide that gives one-half the maximal signal in the assay.
Example 1 illustrates methods to determine the relative binding strengths of peptide to bone. […] A biotin molecule was linked to the C-terminal lysine. Also shown in Table 3 are the relative binding strengths expressed as EC50 (μM) to bone as represented by DBM of human origin. It is noted that the EC50 values were the same or substantially similar when DBM of rabbit origin was used.
Relative binding strength embodiments of the compositions to bone, also used as a measure of binding specificity, were determined by testing serial dilutions of the composition for binding to bone, as described in Example 1 Section B. Plotting the absorbance observed across the concentration range for each composition yielded a binding curve and rough dissociation constant of the composition for bone. Similar to a peptide having binding specificity for bone from which the composition is made, one property of the composition embodiments is that they bind to bone with binding specificity as measured by an EC50 of less than or equal to about 10 μM, and for some embodiments, in the nanomolar range (<1 μM). Using the methods outlined in Example 1B herein, assayed were the relative binding strengths of […] illustrative composition embodiments which include the amino acid sequences shown in SEQ ID NOs: 137, 138, 139, 140, 141 & 142, see Table 7, and synthesized to include a C-terminal amino linker which was biotinylated to facilitate determination of the relative binding strengths to bone. Shown in Table 8 are the relative binding strengths of composition embodiments to bone, as represented by DBM, expressed as EC50 (in μM).

[3] = biological target: demineralized cortical bone (DCB); test: Biotinylated peptide binding to demineralized cortical bone
Description: (§2) Relative binding strengths of the peptides to bone, also used as a measure of binding specificity, were determined by testing serial dilutions of the peptide for binding to bone, as represented by DBM. Plotting the absorbance observed across the concentration range for each peptide sequence yielded a binding curve of the peptides to its target substrate from which can be determined an EC50. The goal of the screenings and selections was to identify one or more peptides that bind to the selected substrate with binding specificity, with an EC50 of less than or equal to about 10 μM, and for some embodiments, in the nanomolar range (<1 μM). […] As a specific example, DBM was placed in a microtiter plate at a concentration of 3 mg equivalents per well, and then the wells were blocked with buffer containing 1% BSA for 1 hour at room temperature. The buffer containing 1% BSA was then aspirated from each well, and added to the wells were the serial dilutions of biotinylated peptide. The microtiter plates were incubated for 1 hour at room temperature on a plate shaker. The DBM was then allowed to settle, and the buffer was then aspirated from the wells. The DBM was washed three times with buffer-T, and then streptavidin-alkaline phosphatase was added. The microtiter plates were incubated for 1 hour at room temperature on a plate shaker. The DBM was then allowed to settle, and the buffer was then aspirated from the wells. The DBM was washed three times with buffer-T, pNPP (p-nitrophenyl phosphate) was used to develop the assay, and the absorbance was recorded at 405 nm. An estimate of the relative affinity (binding specificity, EC50) of a peptide for bone can be made by determining the concentration of peptide that gives one-half the maximal signal in the assay. Using the methodology illustrated in Example 1, the peptides illustrated in Table 3 were also tested for relative binding strength to demineralized cortical bone, and to cancellous bone, additional evidence of binding specificity for bone.

cancellous bone (CNB) = test: Biotinylated peptide binding to cancellous bone
Description: as §2

stem cells = conditions: cited from earlier work
[4] = tested on: human adipose-derived stem cells; test: Binding to adipose-derived stem cells
Source text: In another embodiment, the pharmaceutically active agent comprises a cell. Thus, a coating composition embodiment includes at least one peptide having binding specificity to bone coupled to at least one peptide having binding specificity for cells. Such coating composition may further include cells bound to the at least one peptide having binding specificity for the cells. For example, RGDX peptides wherein X is any amino acid (SEQ ID NO:119) have been described as binding stem cells, mesenchymal stem cells, and osteoblasts.

[5] = DBM of human origin, biotinylated peptide, read-out: Binding specificity for bone (e.g., DBM) EC50
[6] = demineralized bone matrix, read-out: EC50 (μM) for DBM

Sequence of human growth hormone (P01241 27-217): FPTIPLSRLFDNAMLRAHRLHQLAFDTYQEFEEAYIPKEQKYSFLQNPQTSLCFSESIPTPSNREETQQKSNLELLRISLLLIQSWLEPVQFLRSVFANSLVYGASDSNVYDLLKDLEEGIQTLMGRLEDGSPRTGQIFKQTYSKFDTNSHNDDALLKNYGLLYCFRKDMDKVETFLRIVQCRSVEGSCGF

## 118 (GGALGFPLKGEVVEGWA) [compound 118]
BMP4
  Binding specificity for BMP4: showed binding specificity
BMP14
  Binding specificity for BMP14: showed binding specificity
BMP7
  Binding specificity for BMP7: showed binding specificity
BMP2
  Binding specificity for BMP2: showed binding specificity

## 123 (HTPHPDASIQGV) [compound 123]
[1]
  Binding to paclitaxel: bind to paclitaxel

## 93 (SSSVDLYFPLKGDVVSR) [compound 93]
BMP4
  Binding specificity for BMP4: showed binding specificity
BMP14
  Binding specificity for BMP14: showed binding specificity
BMP7
  Binding specificity for BMP7: showed binding specificity
BMP2
  Binding specificity for BMP2: showed binding specificity

## 124 (VMNV) [compound 124]
Human growth hormone
  Binding to human growth hormone: found to bind to human growth hormone

## 91 (GGGAWEAFSSLSGSRV) [compound 91]
BMP5
  Binding specificity for BMP5: displayed binding specificity
BMP4
  Binding specificity for BMP4: displayed binding specificity
BMP14
  Binding specificity for BMP14: displayed binding specificity
BMP7
  Binding specificity for BMP7: displayed binding specificity
BMP2
  Binding specificity for BMP2: displayed binding specificity

## 58 (SSWEVFSSLESGSVGAGAGSR) [compound 58]
BMP4
  Binding specificity for BMP4: showed binding specificity
BMP14
  Binding specificity for BMP14: showed binding specificity
BMP7
  Binding specificity for BMP7: showed binding specificity
BMP2
  Binding specificity for BMP2: showed binding specificity

## CC(C)C[C@H](NC(=O)[C@@H](N)CO)C(=O)NCC(=O)N[C@H](C(=O)N[C@@H](Cc1ccccc1)C(=O)N[C@@H](Cc1c[nH]c2ccccc12)C(=O)N[C@@H](CO)C(=O)N[C@@H](CO)C(=O)N[C@H](C(=O)N[C@@H](Cc1c[nH]c2ccccc12)C(=O)N[C@@H](CCCNC(=N)N)C(=O)NCC(=O)N[C@H](C(=O)N[C@@H](CC(=O)O)C(=O)N[C@@H](C)C(=O)NCC(=O)NCC(=O)N[C@@H](CCC(=O)O)C(=O)N[C@@H](CO)C(=O)N[C@@H](CCCNC(=N)N)C(=O)NCC(=O)N[C@@H](CO)C(=O)N[C@@H](CO)C(=O)NCC(=O)N[C@@H](CCCCNC(=O)CCCC[C@@H]1SC[C@@H]2NC(=O)N[C@@H]21)C(=O)O)C(C)C)C(C)C)[C@@H](C)O [compound 43] (H-SLGTFWSSVWRGVDAGGESRGSSGK(Biotin)-OH)
[2]; [5]
  EC50: < 1 µM
[2]; [6]
  EC50: < 1 µM
[3]
  EC50: < 1 µM
Cancellous bone (CNB)
  EC50: ≤ 1 µM

## 120 (ALPSTSSQMPQL) [compound 120]
Stem cells
  Binding to stem cells: binding to stem cells

## CC[C@H](C)[C@H](NC(=O)[C@H](CC(=O)O)NC(=O)[C@H](Cc1ccccc1)NC(=O)[C@@H](N)CO)C(=O)N[C@@H](CC(=O)O)C(=O)N[C@@H](Cc1c[nH]c2ccccc12)C(=O)N[C@@H](CO)C(=O)NCC(=O)N[C@@H](CCSC)C(=O)N[C@@H](CCCNC(=N)N)C(=O)N[C@@H](CO)C(=O)N[C@@H](Cc1c[nH]c2ccccc12)C(=O)N[C@@H](Cc1c[nH]c2ccccc12)C(=O)NCC(=O)N[C@@H](CO)C(=O)N[C@@H](CCCNC(=N)N)C(=O)NCC(=O)N[C@@H](CO)C(=O)N[C@@H](CO)C(=O)NCC(=O)N[C@@H](CCCCNC(=O)CCCC[C@@H]1SC[C@@H]2NC(=O)N[C@@H]21)C(=O)O [compound 44] (H-SFDIDWSGMRSWWGSRGSSGK(Biotin)-OH)
[2]; [5]
  EC50: < 1 µM
[2]; [6]
  EC50: < 1 µM
[3]
  EC50: < 1 µM
Cancellous bone (CNB)
  EC50: < 1 µM

## 121 (SSSCQHVSLLRPSAALGPDNCSR) [compound 121]
[4]
  Binding specificity for human adipose-derived stem cells: has binding specificity

## CC[C@H](C)[C@H](NC(=O)[C@@H](N)CO)C(=O)N[C@@H](Cc1ccccc1)C(=O)N[C@@H](CO)C(=O)N[C@H](C(=O)N[C@@H](Cc1c[nH]c2ccccc12)C(=O)N[C@@H](CC(N)=O)C(=O)N1CCC[C@H]1C(=O)N[C@@H](Cc1c[nH]c2ccccc12)C(=O)N[C@@H](CO)C(=O)N1CCC[C@H]1C(=O)N[C@@H](Cc1ccc(O)cc1)C(=O)N[C@@H](CO)C(=O)N[C@H](C(=O)N[C@@H](CO)C(=O)N[C@@H](CCCNC(=N)N)C(=O)NCC(=O)N[C@@H](CO)C(=O)N[C@@H](CO)C(=O)NCC(=O)N[C@@H](CCCCNC(=O)CCCC[C@@H]1SC[C@@H]2NC(=O)N[C@@H]21)C(=O)O)C(C)C)[C@@H](C)O [compound 40] (H-SIFSTWNPWSPYSVSRGSSGK(Biotin)-OH)
[2]; [5]
  EC50: < 1 µM
[2]; [6]
  EC50: < 1 µM
[3]
  EC50: < 1 µM
Cancellous bone (CNB)
  EC50: < 1 µM
